Measurements published in publication PMC5715260, “Increasing the length and hydrophobicity of the C‐terminal sequence of transthyretin strengthens its binding affinity to retinol binding protein” (FEBS Open Bio, 2017).

Target: Human retinol binding protein (RBP) (human, UniProt P02753 19-201)
Experiment: native gel or EMSA; purified TTR (0.5 uM) incubated with human RBP (0-4 uM) at 4 °C for 2 h; free and RBP-bound TTR separated by native PAGE (10%), western blot with anti-TTR and ECL; Kd by Scatchard analysis assuming a 1:2 TTR:RBP complex; low TTR/RBP molar ratio
Conditions: both partners purified

B1: Crocodylus porosus transthyretin (TTR), recombinant (natural protein)
chain: not shown
notes: Transthyretin, Crocodylus porosus, recombinant wild type; The discussion says all TTRs were secreted as a tetramer; also called C. porosus TTR; crocTTR; source: Pichia pastoris, secreted into the culture medium, purified (preparative native PAGE)
Work on B1 yielded a Kd of 1420 nM.
